# Values of other authors in article PMC7843923.
# How the values were obtained:
# Unc5D = Unc5D (UniProt Q6UXZ4)
# Latrophilin3 = Latrophilin3 (UniProt Q9HAR2)
# Sequence of UniProt Q9HAR2 (Q9HAR2 20-862): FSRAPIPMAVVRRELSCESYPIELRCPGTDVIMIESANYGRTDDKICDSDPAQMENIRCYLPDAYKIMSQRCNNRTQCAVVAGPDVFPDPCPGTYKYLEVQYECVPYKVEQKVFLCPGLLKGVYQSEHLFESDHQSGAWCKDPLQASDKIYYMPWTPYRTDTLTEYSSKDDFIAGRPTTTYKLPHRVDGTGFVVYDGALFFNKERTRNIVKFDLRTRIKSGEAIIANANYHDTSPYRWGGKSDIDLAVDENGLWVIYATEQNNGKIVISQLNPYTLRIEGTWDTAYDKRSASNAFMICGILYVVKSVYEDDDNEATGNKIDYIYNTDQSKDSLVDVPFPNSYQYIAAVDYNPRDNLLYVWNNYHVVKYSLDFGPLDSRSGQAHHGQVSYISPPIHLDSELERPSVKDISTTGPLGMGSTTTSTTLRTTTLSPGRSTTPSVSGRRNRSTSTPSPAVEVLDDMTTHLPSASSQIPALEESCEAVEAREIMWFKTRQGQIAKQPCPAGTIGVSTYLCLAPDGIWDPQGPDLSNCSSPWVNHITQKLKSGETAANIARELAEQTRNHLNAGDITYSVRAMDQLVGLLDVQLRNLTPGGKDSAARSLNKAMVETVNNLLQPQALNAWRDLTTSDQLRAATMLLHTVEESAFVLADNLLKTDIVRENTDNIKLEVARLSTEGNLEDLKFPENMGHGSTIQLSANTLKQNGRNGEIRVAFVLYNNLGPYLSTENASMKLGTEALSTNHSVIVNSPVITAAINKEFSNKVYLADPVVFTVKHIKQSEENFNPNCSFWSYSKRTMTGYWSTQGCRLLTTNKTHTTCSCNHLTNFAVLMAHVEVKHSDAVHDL
# Sequence of UniProt Q6UXZ4 (Q6UXZ4 33-379): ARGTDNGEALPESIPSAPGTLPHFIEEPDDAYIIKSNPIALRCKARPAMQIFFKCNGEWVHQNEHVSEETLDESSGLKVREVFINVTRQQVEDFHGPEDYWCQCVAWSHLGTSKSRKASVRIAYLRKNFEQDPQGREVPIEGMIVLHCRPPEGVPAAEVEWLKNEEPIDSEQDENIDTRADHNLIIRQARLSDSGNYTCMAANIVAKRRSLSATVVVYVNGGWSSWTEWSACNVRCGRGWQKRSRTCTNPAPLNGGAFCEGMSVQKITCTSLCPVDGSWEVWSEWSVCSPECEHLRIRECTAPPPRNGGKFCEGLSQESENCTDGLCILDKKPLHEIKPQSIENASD
Substance,Kd (Unc5D),Kd (Latrophilin3)
FLRT2 (from UniProt O43155),310 nM,
FLRT (from UniProt Q9NZU0),,40 nM
